Reference: IntAct's records for PubMed 17399790

B1: Complement factor H (Homo sapiens), P08603-2 (parent)
chain: MRLLAKIICLMLWAICVAEDCNELPPRRNTEILTGSWSDQTYPEGTQAIYKCRPGYRSLGNVIMVCRKGEWVALNPLRKCQKRPCGHPGDTPFGTFTLTGGNVFEYGVKAVYTCNEGYQLLGEINYRECDTDGWTNDIPICEVVKCLPVTAPENGKIVSSAMEPDREYHFGQAVRFVCNSGYKIEGDEEMHCSDDGFWSKEKPKCVEISCKSPDVINGSPISQKIIYKENERFQYKCNMGYEYSERGDAVCTESGWRPLPSCEEKSCDNPYIPNGDYSPLRIKHRTGDEITYQCRNGFYPATRGNTAKCTSTGWIPAPRCTLKPCDYPDIKHGGLYHENMRRPYFPVAVGKYYSYYCDEHFETPSGSYWDHIHCTQDGWSPAVPCLRKCYFPYLENGYNQNYGRKFVQGKSIDVACHPGYALPKAQTTVTCMENGWSPTPRCIRVSFTL
partner: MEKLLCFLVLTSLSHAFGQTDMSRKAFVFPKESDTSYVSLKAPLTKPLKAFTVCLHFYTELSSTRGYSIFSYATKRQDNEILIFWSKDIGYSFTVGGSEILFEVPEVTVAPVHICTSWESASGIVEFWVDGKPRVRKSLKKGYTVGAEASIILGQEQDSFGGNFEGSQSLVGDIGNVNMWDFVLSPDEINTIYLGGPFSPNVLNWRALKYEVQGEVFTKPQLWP
B2: Complement factor H (Homo sapiens), P08603-1 (parent)
chain: MRLLAKIICLMLWAICVAEDCNELPPRRNTEILTGSWSDQTYPEGTQAIYKCRPGYRSLGNVIMVCRKGEWVALNPLRKCQKRPCGHPGDTPFGTFTLTGGNVFEYGVKAVYTCNEGYQLLGEINYRECDTDGWTNDIPICEVVKCLPVTAPENGKIVSSAMEPDREYHFGQAVRFVCNSGYKIEGDEEMHCSDDGFWSKEKPKCVEISCKSPDVINGSPISQKIIYKENERFQYKCNMGYEYSERGDAVCTESGWRPLPSCEEKSCDNPYIPNGDYSPLRIKHRTGDEITYQCRNGFYPATRGNTAKCTSTGWIPAPRCTLKPCDYPDIKHGGLYHENMRRPYFPVAVGKYYSYYCDEHFETPSGSYWDHIHCTQDGWSPAVPCLRKCYFPYLENGYNQNYGRKFVQGKSIDVACHPGYALPKAQTTVTCMENGWSPTPRCIRVKTCSKSSIDIENGFISESQYTYALKEKAKYQCKLGYVTADGETSGSITCGKDGWSAQPTCIKSCDIPVFMNARTKNDFTWFKLNDTLDYECHDGYESNTGSTTGSIVCGYNGWSDLPICYERECELPKIDVHLVPDRKKDQYKVGEVLKFSCKPGFTIVGPNSVQCYHFGLSPDLPICKEQVQSCGPPPELLNGNVKEKTKEEYGHSEVVEYYCNPRFLMKGPNKIQCVDGEWTTLPVCIVEESTCGDIPELEHGWAQLSSPPYYYGDSVEFNCSESFTMIGHRSITCIHGVWTQLPQCVAIDKLKKCKSSNLIILEEHLKNKKEFDHNSNIRYRCRGKEGWIHTVCINGRWDPEVNCSMAQIQLCPPPPQIPNSHNMTTTLNYRDGEKVSVLCQENYLIQEGEEITCKDGRWQSIPLCVEKIPCSQPPQIEHGTINSSRSSQESYAHGTKLSYTCEGGFRISEENETTCYMGKWSSPPQCEGLPCKSPPEISHGVVAHMSDSYQYGEEVTYKCFEGFGIDGPAIAKCLGEKWSHPPSCIKTDCLSLPSFENAIPMGEKKDVYKAGEQVTYTCATYYKMDGASNVTCINSRWTGRPTCRDTSCVNPPTVQNAYIVSRQMSKYPSGERVRYQCRSPYEMFGDEEVMCLNGNWTEPPQCKDSTGKCGPPPPIDNGDITSFPLSVYAPASSVEYQCQNLYQLEGNKRITCRNGQWSEPPKCLHPCVISREIMENYNIALRWTAKQKLYSRTGESVEFVCKRGYRLSSRSHTLRTTCWDGKLEYPTCAKR
partner: B1 partner

Variants of: B1
Details: with crp_human CRP

effect of a mutation on the interaction | Variant
decreasing interaction strength | Y402H

Variants of: B2
Details: with crp_human CRP

effect of a mutation on the interaction | Variant
decreasing interaction strength | Y402H
